Laboratory results taken from article PMC11490574, “IGF2BP1 phosphorylation in the disordered linkers regulates ribonucleoprotein condensate formation and RNA metabolism”.

Legend:
[1] = target: T1, IGF2BP1 RQ (UniProt Q9NZI8 1-577, R167Q;R168Q;R174Q;R178Q); assay: fluorescence anisotropy; EMSA: 25 mM HEPES pH 7.3, 150 mM NaCl, 5% glycerol, 2 mM EDTA, 10 ug/mL heparin, 0.5 mM TCEP, on ice, gel 4 C; FA: 25 mM HEPES 7.3, 150 mM NaCl, 0.025% Tween 20, 10 ug/mL heparin, 2 mM EDTA, 0.5 mM TCEP, 10 nM RNA, 20 C; conditions: protein: recombinant; tags: GST removed by 3C; label: 5'-fluorescein
[2] = target: IGF2BP1 KH1-4 (UniProt Q9NZI8 195-553); assay: as above; conditions: protein: recombinant; tags: His removed by 3C; label: 5'-fluorescein
[3] = target: IGF2BP1 KH3-4 (UniProt Q9NZI8 405-553); assay: as above; conditions: protein: recombinant; tags: His removed by 3C; label: 5'-fluorescein
[4] = target: T2, IGF2BP1 wild-type (UniProt Q9NZI8 1-577); assay: as above; conditions: protein: recombinant; tags: GST removed by 3C; label: 5'-fluorescein
[5] = target: T3, IGF2BP1 S181E (UniProt Q9NZI8 1-577, S181E); assay: as above; conditions: protein: recombinant; tags: GST removed by 3C; label: 5'-fluorescein
[6] = target: T4, IGF2BP1 KH3-4dR (KH3GEEG-KH4GEEG) (UniProt Q9NZI8 1-577, K423E;K424E;K505E;G506E); assay: as above; conditions: protein: recombinant; tags: GST removed by 3C; label: 5'-fluorescein
[7] = target: T5, IGF2BP1 Y396E (UniProt Q9NZI8 1-577, Y396E); assay: as above; conditions: protein: recombinant; tags: GST removed by 3C; label: 5'-fluorescein
[8] = target: T2, IGF2BP1 wild-type; assay: EMSA; EMSA: 25 mM HEPES pH 7.3, 150 mM NaCl, 5% glycerol, 2 mM EDTA, 10 ug/mL heparin, 0.5 mM TCEP, on ice, gel 4 C; FA: 25 mM HEPES 7.3, 150 mM NaCl, 0.025% Tween 20, 10 ug/mL heparin, 2 mM EDTA, 0.5 mM TCEP, 10 nM RNA, 20 C; conditions: protein: recombinant; tags: GST removed by 3C
[9] = target: T3, IGF2BP1 S181E; assay: as above; conditions: protein: recombinant; tags: GST removed by 3C
[10] = target: T5, IGF2BP1 Y396E; assay: as above; conditions: protein: recombinant; tags: GST removed by 3C
[11] = target: T1, IGF2BP1 RQ; assay: as above; conditions: protein: recombinant; tags: GST removed by 3C
[12] = target: T4, IGF2BP1 KH3-4dR (KH3GEEG-KH4GEEG); assay: as above; conditions: protein: recombinant; tags: GST removed by 3C

T5 sequence (Q9NZI8 whole entry Y396E): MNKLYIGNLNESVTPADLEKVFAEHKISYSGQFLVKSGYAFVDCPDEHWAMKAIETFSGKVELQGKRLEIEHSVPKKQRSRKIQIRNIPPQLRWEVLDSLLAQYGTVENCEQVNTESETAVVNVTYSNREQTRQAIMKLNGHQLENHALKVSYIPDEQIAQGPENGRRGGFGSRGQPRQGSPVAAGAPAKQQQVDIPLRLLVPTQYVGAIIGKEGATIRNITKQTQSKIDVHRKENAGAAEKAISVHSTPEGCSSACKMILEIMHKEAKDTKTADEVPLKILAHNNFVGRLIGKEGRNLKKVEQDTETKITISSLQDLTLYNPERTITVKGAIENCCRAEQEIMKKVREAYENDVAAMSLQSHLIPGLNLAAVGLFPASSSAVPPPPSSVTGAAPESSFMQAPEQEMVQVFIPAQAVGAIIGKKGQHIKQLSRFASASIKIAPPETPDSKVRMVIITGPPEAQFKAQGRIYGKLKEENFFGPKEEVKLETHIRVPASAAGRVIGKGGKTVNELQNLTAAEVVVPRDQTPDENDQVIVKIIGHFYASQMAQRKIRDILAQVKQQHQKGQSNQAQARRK
T3 sequence (Q9NZI8 whole entry S181E): as the sequence (Q9NZI8 whole entry Y396E) above, with S181E, E396Y counted along it
T2 sequence (Q9NZI8 whole entry): as the sequence (Q9NZI8 whole entry Y396E) above, with E396Y counted along it
T4 sequence (Q9NZI8 whole entry K423E/K424E/K505E/G506E): as the sequence (Q9NZI8 whole entry Y396E) above, with E396Y, K423E, K424E, K505E, G506E counted along it
IGF2BP1 KH3-4, sequence (Q9NZI8 405-553): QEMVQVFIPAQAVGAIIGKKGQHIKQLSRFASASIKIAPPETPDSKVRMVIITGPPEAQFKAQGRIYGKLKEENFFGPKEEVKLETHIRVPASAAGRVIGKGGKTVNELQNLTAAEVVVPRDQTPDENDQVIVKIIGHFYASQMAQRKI
T1 sequence (Q9NZI8 whole entry R167Q/R168Q/R174Q/R178Q): as the sequence (Q9NZI8 whole entry Y396E) above, with R167Q, R168Q, R174Q, R178Q, E396Y counted along it
IGF2BP1 KH1-4, sequence (Q9NZI8 195-553): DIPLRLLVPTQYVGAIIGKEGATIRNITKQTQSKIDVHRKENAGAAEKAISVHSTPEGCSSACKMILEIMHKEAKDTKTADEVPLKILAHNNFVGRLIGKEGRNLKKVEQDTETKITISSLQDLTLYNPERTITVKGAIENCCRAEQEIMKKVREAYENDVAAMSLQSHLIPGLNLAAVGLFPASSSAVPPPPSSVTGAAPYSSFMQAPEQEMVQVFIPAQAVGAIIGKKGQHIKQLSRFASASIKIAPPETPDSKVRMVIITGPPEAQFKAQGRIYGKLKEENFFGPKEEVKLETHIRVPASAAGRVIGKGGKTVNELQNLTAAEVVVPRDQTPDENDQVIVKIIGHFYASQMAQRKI

With GUGACAUGUCCUCUCUGCUUGGUGUAAACCAUUCUU (ssRNA) [XBP1 36 nt] the binding result [1] was “binds”, the “apparent K (half saturation)” value [2] was 204 nM and the “apparent K (half saturation)” value [3] was about 1500 nM. The “apparent K (half saturation)” value [4] was 312 nM, the “apparent K (half saturation)” value [5] was 310 nM and the “apparent K (half saturation)” value [6] was 186 nM. The “apparent K (half saturation)” value [7] was 423 nM.

ACCGGACUGUUACCAACACCCACACCCC (ssRNA) [ACTB 28 nt] was tested, and the “apparent K (half saturation)” value [2] was 75.2 nM, the “apparent K (half saturation)” value [3] was 1570 nM and the “apparent K (half saturation)” value [4] was 68.5 nM.

B1: EIF2A 200 nt (ssRNA)
RNA: AGAAAAUUCAGAAAGAAACAGCCCUUCUCCAGGAGCUGGAAGAUUUGGAAUUGGGUAUUUAAAGAUUCACGGAAAGCAAGUUGAUGACCAGAAAUCAGUGCAAACACAUCUUCUGUUAAACCCAUUGGUAUACACAGAAUAUUCCUGUGCCCACACUUAAUGUCAAUCUAUAAUUUUAACCAUUUAUCCAAGAUUCUACU
For B1, the “apparent K (half saturation)” value [8] was 48.2 nM, the “apparent K (half saturation)” value [9] was 35.4 nM and the “apparent K (half saturation)” value [10] was 40.2 nM.

B2: XBP1 201 nt (ssRNA)
RNA: UCUCAAAUCUGCUUUCAUCCAGCCACUGCCCAAAGCCAUCUUCCUGCCUACUGGAUGCUUACAGUGACUGUGGAUACGGGGGUUCCCUUUCCCCAUUCAGUGACAUGUCCUCUCUGCUUGGUGUAAACCAUUCUUGGGAGGACACUUUUGCCAAUGAACUCUUUCCCCAGCUGAUUAGUGUCUAAGGAAUGAUCCAAUACU
For B2, the binding result [11] was “binds”, the “apparent K (half saturation)” value [8] was 41 nM and the “apparent K (half saturation)” value [9] was 17.1 nM. The “apparent K (half saturation)” value [12] was 64.7 nM and the “apparent K (half saturation)” value [10] was 22.9 nM.

B3: MYC 191 nt (ssRNA)
RNA: UGCGUGACCAGAUCCCGGAGUUGGAAAACAAUGAAAAGGCCCCCAAGGUAGUUAUCCUUAAAAAAGCCACAGCAUACAUCCUGUCCGUCCAAGCAGAGGAGCAAAAGCUCAUUUCUGAAGAGGACUUGUUGCGGAAACGACGAGAACAGUUGAAACACAAACUUGAACAGCUACGGAACUCUUGUGCGUAA
For B3, the “apparent K (half saturation)” value [8] was 14.4 nM, the “apparent K (half saturation)” value [9] was 17.8 nM and the “apparent K (half saturation)” value [10] was 16.7 nM.
